Laboratory results from the DeepSol protein solubility set.

Assay: soluble on expression in E. coli; label from the status in PepcDB or PDB records

Sequence | soluble on expression in E. coli
MHHHHHHSSGVDLGTENLYFQSMVPPIPKQDGGEQNGGMQCKPYGAGPTEPAHPVDERLKNLEPKMIELIMNEIMDHGPPVNWEDIAGVEFAKATIKEIVVWPMLRPDIFTGLRGPPKGILLFGPPGTGKTLIGKCIASQSGATFFSISASSLTSKWVGEGEKMVRALFAVARCQQPAVIFIDEIDSLLSQRGDGEHESSRRIKTEFLVQLDGATTSSEDRILVVGATNRPQEIDEAARRRLVKRLYIPLPEASARKQIVINLMSKEQCCLSEEEIEQIVQQSDAFSGADMTQLCREASLGPIRSLQTADIATITPDQVRPIAYIDFENAFRTVRPSVSPKDLELYENWNKTFGCGK | soluble
MSDWFQLDKEYMMSTYCRTKIAIERGEGCKLYDVDGKEYLDLFSGVGVNVLGYNHPKIVQTTMDQVTKSLHLPFHFLNPVAIEYAKKLVDCSLKNGKVFFTNSGTEATETTLKLIDKYRAITNEEREGIVVLKNSFHGRTLGALHFTRQESVYQNFPTTSIPVYEVERENIEQLEETIINENPIAILLEPVLGSGGIYPLSREYLHGVQNLCDKYNVILIVDEVQSGMGRTGKLFAYQNFNITPHIIQIGKGAGGGIPLGGIIVGEKLCDVFAPGDHGTTFAHSSMGTALGLTVLNTLLDDGLMQEAYEMSLYLNDKLQEIQKENSYYIEEVRHAGMMFGISLNDTNENVKKLQVELMEKGILVDVTQGNIIRLLPPYIITKEEIDTFITQFIFCIDKVAAVVSA | not soluble
MTATTNESQEIAMTATTADEIPASTEQNLRIVQRVIFPANRDLDTLPLYVDPDTNKLHTSGGGADVQAIGMARKLHPEDILNRGSVQVRRGERLSFGSYFNAFPASYWRKWTIATKTVLHIETEGEGTVIVYRSNARGASQRVDSILVEGPSTNEFELTLAPFGDGGWYWFDLIAGGDGMTLKSAHWAVPDEGRPQGRVTLGVTTFNRADYCLETIKSIDGDAGLREILAELIIVDQGNKKVADQAGFDAVAESMGDQLRIINQGNLGGSGGFARNMYEMVVSDKSDYVMLLDDDIELETEGVMRAVAFADLCRKPTIVGGHMFDMYNKSVLHAYSEVVNFYRFLWGPVEGLGNHDFSTAGLRSTPQLHRRWDADYNGWWMCLIPKTVVETIGLSLPVFIKWDDAEYSLRGRAAGFPTVTLPGAAVWHVSWADKDDSVDWQAYYHERNRLIATLLHSPFPKGGRILRESLNTDVKHLVSMQYYPEQARVMALRDVLAGPDNLHKQLPTTMPKLRAMREEFPDSQVKTDPAAFPEVFRKRPPKKPQSFKQPGALGLLPWAVKTVLKQTLAPVRGTAKAAPEAHVAHQDGKWWSLAHLDSAVVSNADGTGASWHLRNPKMARQLVVESAKLHAQLFSNWETLRAQYREALPEITSMESWRETFEASEPSK | not soluble
AIAEHKEVVLLLLLFLKSGQGEPLDDYVNTQGPSLFSVTKKQLGAGSREECAAKCEEDKEFTCRAFQYHSKEQQCVIMAENRKSSIIIRMRDAVLFEK | soluble
MSIVPGVVHSLYGDAKARWTINEYADLECPFCKVYTPRLKRWVDSHTDVNLVWRHLPLQMHGEAARHQARLVECAGIQGGAKAFWSAIDAIFAQSAGNGGGLPGGTLDFPDLDQARLEKCAKDMDLVDQLIKTDIDTARSNGITATPTLVIQDNQTGRSVKLEGMADETTLLSAIDWLAKDL | not soluble
MFTIRKARIDDCGLINQMAGEVFPATYQEILSPGQLDYMMDWMYSPENIRKQMEEEGHVYFIAYEGDEPCGYVSVQQQEENVFHLQKIYVLPHFQGAHCGSFLFREAVRYIKEVHPEPCLMELNVNRNNKALLFYERMGMRKLREGDFPIGNGYYMNDYIMGLDI | not soluble
MSDATNNAVLVRNLSPEVTKQTLLDFFSFCGEISAVKIRPSVGEGGSSSSGSPTEAMEALVIFENQSAKKTALVLDSATLKKRKISVMDATEELVSSFKDVREVDLARDSTDVPETATARQERLQGLREEFDRAIKRASDKLSDFNEKHRITEKVQEFGDLTKRKTQEINEQYRLTERAREGWQTVREKTRELDERLHLSESARDGWRSLKASVSKIMQKDRGGEVDKA | soluble
MGSDKIHHHHHHMAHHAAPPINTTKFPIDRWWVAALSSELTDKPVARTLLGRPVVLFRLPSGEVGALEDRCCHKSLPLSCGSLEVRGLRCGYHGLLFDRDGACVEIPGQDRIPAKACVASYPVREQDAIVWIWIGAEAHAEPTCAPPRYPFHSDPQYRFGGGHYHYDAPYQLIHDNLMDLSHLGYVHLKTIGGNASLHMGAETRVSTDGDTVTLVRRMPDSEPPPTYTAAWPFAGRVDRWQEIEFHVSHIRIWTGAMDAGTGDLHDPARGGFHMRGFHGITPETETTTHYFWTVATNPQHDIERVARTVIEQSAATFDEDKTVIEAQYRNQLRFPDRRQIDIHVDAGPNRARRVIERLLLQPEPA | not soluble
TNTEQFCTGCHEMRDNVYAELKGTIHYTNRSGVRAICSDCHVPHNWTDKIARKTQASKEVWGKIFGTINTREKFVEKRLELAQHEWARLKANDSLECRNCHNYESMDFTRQSMRAQNMHSTYLADKSKTCIDCHKGIAHTLPRMPPDQTSLAPPAAGPARADTGHAER | not soluble
MGSSHHHHHHSSGLEVLFQGPHMETAIWIKNSKLPAVLVAAGAFDAAVQALSKQVGVVKLEPLKKYFTNIYEGCRTYIPSTPCELPAQLGYVRAYDDTVSEDQILPYVPGLDVVNEKMNEGYKNFKLNKPDIAIECFREAIYRITLLMVDDAEDEKLAHKILETAREYILGLSIELERRSLKEGNTVRMLELAAYFTKAKLSPIHRTNALQVAMSQHFKHKNFLQASYFAGEFLKIISSGPRAEQARKIKNKADSMASDAIPIDFDPYAKFDICAATYKPIYEDTPSVSDPLTGSKYVITEKDKIDRIAMISKIGAPASGLRIRV | soluble
MSLTAHGLCEFIDASPSPFHVCATVAGRLLGAGYRELREADRWPDKPGRYFTVRAGSLVAWNAEQSGHTQVPFRIVGAHTDSPNLRVKQHPDRLVAGWHVVALQPYGGVWLHSWLDRDLGISGRLSVRDGTGVSHRLVLIDDPILRVPQLAIHLAEDRKSLTLDPQRHINAVWGVGERVESFVGYVAQRAGVAAADVLAADLMTHDLTPSALIGASVNGTASLLSAPRLDNQASCYAGMEALLAVDVDSASSGFVPVLAIFDHEEVGSASGHGAQSDLLSSVLERIVLAAGGTREDFLRRLTTSMLASADMAHATHPNYPDRHEPSHPIEVNAGPVLKVHPNLRYATDGRTAAAFALACQRAGVPMQRYEHRADLPCGSTIGPLAAARTGIPTVDVGAAQLAMHSARELMGAHDVAAYSAALQAFLSAELSEAEGHHHHHH | not soluble
MSVINKIVARRTQLSQSGRLVGDWIVENAEKAAQLTSQELAAQVKVSQSSIVKFTQRIGFKGYSEFKLALNEEIGRKHAMQSTPLHSDILADDPIAVISQKLVKAKTDAMFQTTNALSYEACHQAVKWLSEARRVQVVGIGGSALTAKDLSFKLLKLGITALSEQDSHVQIAVARTLSSEDVQIAISYSGERKEILVAAEAAKEQGAKVIALSAPGRSRLRGIADITFDTIANETEHRSSSIASRTAQNVITDLLFIILVQQRDESARQLISDISTDIKQILT | not soluble
MALFFRTRDRPLRPGDPYPLGSNWIEDDDGVNFSLFSENAEKVELLLYSLTNQKYPKEIIEVKNKTGDIWHVFVPGLRPGQLYAYRVYGPYKPELGLRFNPNKVLIDPYAKAINGSVIWNDAVFGYKIGDQNQDLTYDERDSGEYVPKSVVINPYFEWDDEDFIKGKKVPLKDTVIYEVHVKGFTKLRLDLPENIRGTYEGLASEQMISYLKDLGITTVELMPVFHFIDQRFLTDKGLTNYWGYDPINFFSPECRYSSTGCLGGQVLSFKKMVNELHNAGIEVIIDVVYNHTAEGNHLGPTLSFRGIDNTAYYMLQPDNKRYYLDFTGTGNTLNLSHPRVIQMVLDSLRYWVTEMHVDGFRFDLAAALARELYSVNMLNTFFIALQQDPILSQVKLIAEPWDVGQGGYQVGNFPYQWAEWNGKYRDSIRRFWRGEALPYSEIANRLLGSPDIYLGNNKTPFASINYVTSHDGFTLEDLVSYNQKHNEANGFNNQDGMNENYSWNCGAEGPTNDQNVVICREKQKRNFMITLLVSQGTPMILGGDELSRTQRGNNNAFCQDNEITWFDWNLDERKSKFLEFVKKMIQFYRAHPAFRRERYFQGKKLFGMPLKDVTFYTLEGREVDEKTWSSPTQLVIFVLEGSVMDEINMYGERIADDSFLIILNANPNNVKVKFPKGKWELVISSYLREIKPEERIIEGEKELEIEGRTALVYRRIEL | soluble
